The values below come from patent publication US20240190939A1 (SHATTUCK LABS, published 2024).

In one assay the target is T1, CD47-His.
T1 construct: ELISA capture protein used with both murine and human chimeras
The assay can be described thus: ELISA: CD47-His capture, IgG detection.

Assay [1] addresses T2, mouse CD47 on CHO-K1 cells (mouse, UniProt Q61735 19-303).
T2 construct: whole, on cells; also called mCD47 engineered cell line; mCD47 over-expressing cell line
T2 sequence (looked up): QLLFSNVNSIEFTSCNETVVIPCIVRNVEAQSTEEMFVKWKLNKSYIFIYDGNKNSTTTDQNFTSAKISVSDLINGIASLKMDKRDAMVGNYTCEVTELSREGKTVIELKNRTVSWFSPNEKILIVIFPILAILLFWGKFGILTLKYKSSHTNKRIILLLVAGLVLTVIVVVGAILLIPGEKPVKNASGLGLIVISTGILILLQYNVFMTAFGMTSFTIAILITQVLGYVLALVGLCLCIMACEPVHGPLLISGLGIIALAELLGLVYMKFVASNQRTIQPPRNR
The assay can be described thus: flow cytometry on CHO-K1 cells expressing murine CD47. On the technique in general: A flow cytometer gives signals particle by particle.

Assay [2] concerns the target T3, hCD155-Fc (human, UniProt P15151 21-343, limits assumed).
T3 construct: not shown: Fc, not identified
T3 sequence (looked up): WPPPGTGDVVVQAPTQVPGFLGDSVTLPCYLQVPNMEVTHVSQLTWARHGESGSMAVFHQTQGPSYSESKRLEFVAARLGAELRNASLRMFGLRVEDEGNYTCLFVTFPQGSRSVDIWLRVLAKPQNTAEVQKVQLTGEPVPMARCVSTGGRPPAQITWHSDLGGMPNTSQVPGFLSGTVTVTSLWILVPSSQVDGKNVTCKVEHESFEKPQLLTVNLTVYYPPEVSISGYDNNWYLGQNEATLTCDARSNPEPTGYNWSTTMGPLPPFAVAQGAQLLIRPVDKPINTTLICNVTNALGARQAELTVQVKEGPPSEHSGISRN
The experiment in a line: ELISA as printed: CD155-Fc capture, goat anti-hOX40L detection, anti-goat HRP (legend says CD155PVR-His capture, IgG detection). For orientation: In an ELISA, binding on a coated surface is turned into a signal by an enzyme label.

Another assay addresses T4, TNFRSF4.
T4 construct: also called TNF Receptor Superfamily Member 4
T4 chain: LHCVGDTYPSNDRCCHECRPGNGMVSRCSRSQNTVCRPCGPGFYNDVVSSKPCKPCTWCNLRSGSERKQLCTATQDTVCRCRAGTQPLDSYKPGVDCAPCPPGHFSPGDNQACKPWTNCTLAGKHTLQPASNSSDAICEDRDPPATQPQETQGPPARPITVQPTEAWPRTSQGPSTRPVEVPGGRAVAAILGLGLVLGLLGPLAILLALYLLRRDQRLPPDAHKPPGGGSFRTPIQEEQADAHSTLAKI
The assay can be described thus: microarray of about 6,000 human membrane proteins.

Another assay deals with T5, NECTIN4 (human, UniProt Q96NY8).
T5 construct: on the microarray of human membrane proteins; also called Nectin Cell Adhesion Molecule 4
T5 sequence (looked up): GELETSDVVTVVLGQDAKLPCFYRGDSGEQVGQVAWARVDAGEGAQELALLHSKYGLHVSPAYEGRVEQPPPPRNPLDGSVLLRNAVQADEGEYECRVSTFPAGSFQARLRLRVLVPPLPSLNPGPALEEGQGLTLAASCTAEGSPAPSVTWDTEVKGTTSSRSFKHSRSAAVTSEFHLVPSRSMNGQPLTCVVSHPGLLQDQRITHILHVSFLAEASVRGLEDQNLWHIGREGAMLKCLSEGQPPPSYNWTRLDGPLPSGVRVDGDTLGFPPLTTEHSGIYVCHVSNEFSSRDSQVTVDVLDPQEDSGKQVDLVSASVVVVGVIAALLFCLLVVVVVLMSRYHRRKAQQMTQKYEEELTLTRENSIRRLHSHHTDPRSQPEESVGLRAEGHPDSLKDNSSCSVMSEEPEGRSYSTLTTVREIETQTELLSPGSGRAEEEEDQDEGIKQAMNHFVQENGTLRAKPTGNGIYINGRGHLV
The assay can be described thus: microarray of about 6,000 human membrane proteins.

The target in a further assay is Galectin-1 (human, UniProt P09382 2-135, limits assumed). The experiment in a line: microarray of about 6,000 human membrane proteins.
Sequence of Galectin-1 (P09382 2-135 limits assumed): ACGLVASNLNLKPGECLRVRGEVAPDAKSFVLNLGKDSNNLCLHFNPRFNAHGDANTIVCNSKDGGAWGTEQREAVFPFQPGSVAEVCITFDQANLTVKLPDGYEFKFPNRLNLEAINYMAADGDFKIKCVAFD
The target of a further assay is T6, PVR (human, UniProt P15151).
T6 construct: on the microarray of human membrane proteins; also called Poliovirus Receptor
T6 sequence (looked up): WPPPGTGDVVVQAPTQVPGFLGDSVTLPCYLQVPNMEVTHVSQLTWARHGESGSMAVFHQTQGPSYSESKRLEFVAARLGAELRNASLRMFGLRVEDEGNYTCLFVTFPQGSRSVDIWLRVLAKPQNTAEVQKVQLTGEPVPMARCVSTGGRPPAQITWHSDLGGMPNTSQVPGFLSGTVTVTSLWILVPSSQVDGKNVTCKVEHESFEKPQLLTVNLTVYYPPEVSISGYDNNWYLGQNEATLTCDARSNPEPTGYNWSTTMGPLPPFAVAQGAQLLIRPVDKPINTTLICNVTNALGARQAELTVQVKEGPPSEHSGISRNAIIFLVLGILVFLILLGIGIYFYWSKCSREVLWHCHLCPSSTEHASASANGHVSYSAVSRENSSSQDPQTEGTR
The experiment in a line: microarray of about 6,000 human membrane proteins.

Assay [3] has as its target T7, recombinant human CD155PVR (human, UniProt P15151 21-343, limits assumed).
T7 sequence (looked up): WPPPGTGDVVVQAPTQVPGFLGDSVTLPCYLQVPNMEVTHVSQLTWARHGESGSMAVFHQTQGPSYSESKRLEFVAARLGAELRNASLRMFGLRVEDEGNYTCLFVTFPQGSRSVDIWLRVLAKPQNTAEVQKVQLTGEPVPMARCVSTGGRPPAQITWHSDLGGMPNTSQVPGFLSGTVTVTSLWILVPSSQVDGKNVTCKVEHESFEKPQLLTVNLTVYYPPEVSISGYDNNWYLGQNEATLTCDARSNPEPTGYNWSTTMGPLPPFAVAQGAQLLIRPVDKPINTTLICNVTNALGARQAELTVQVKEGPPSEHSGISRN
The assay can be described thus: biolayer interferometry (Octet), hPVR; concentration not given. (In general: Biolayer interferometry detects binding as a change in optical thickness at a sensor tip.)

The next assay deals with T8, human LTBR-His (human, UniProt P36941 31-227, limits assumed).
T8 construct: also called hLTBR-His
T8 sequence (P36941 31-227 limits assumed): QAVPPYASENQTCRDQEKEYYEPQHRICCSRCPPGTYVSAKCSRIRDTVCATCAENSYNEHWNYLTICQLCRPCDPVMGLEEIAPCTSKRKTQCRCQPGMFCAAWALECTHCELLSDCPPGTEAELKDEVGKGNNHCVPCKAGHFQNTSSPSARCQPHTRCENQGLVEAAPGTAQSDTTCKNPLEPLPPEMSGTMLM
The assay can be described thus: Dual ELISA: hCD155-Fc capture, hLTBR-His detection, 6x His HRP.

For assay [4], the target named is T3, hCD155-Fc. Described as above.
The target in the next assay is recombinant human LTbR (human, UniProt P36941 31-227, limits assumed). The experiment in a line: biolayer interferometry (Octet), human LTbR.
Sequence of recombinant human LTbR (P36941 31-227 limits assumed): as above
In assay [5] the target is T9, mouse PVR on CHO-K1 cells (mouse).
T9 construct: whole, on cells; also called CHOK1/PVR; mPVR engineered cell line
The experiment in a line: flow cytometry on CHOK1/PVR cells.

The target of the next assay is T10, OX40-Fc.
T10 construct: Capture protein of the dual ELISA
The experiment in a line: Dual ELISA: OX40-Fc capture, CD155-His detection, 6X His HRP (signal needs both OX40-Fc and CD155-His bound).

The next assay concerns the target T11, CD155PVR-His.
T11 construct: ELISA capture protein used with both murine and human chimeras; also called CD155-His
The experiment in a line: ELISA: 'CD115/PVR Capture' as printed (legend: CD155PVR-His), Fc-HRP detection.

The target in assay [6] is T12, mouse OX40 on CHO-K1 cells (mouse, UniProt P47741 20-272).
T12 construct: whole, on cells; also called CHOK1-mOX40
T12 sequence (looked up): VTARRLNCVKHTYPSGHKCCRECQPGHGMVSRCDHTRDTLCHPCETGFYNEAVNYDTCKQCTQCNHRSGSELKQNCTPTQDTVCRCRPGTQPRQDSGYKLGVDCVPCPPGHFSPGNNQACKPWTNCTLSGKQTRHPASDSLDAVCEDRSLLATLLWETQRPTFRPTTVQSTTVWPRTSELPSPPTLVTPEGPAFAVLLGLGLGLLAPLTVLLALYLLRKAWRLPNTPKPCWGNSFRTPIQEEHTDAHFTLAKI
The assay can be described thus: flow cytometry on CHOK1-mOX40 cells.

B1: murine CD172a(SIRPα)-Fc-LIGHT chimeric protein (Fc fusion)
chain 1: KELKVTQPEKSVSVAAGDSTVLNCTLTSLLPVGPIRWYRGVGPSRLLIYSFAGEYVPRIRNVSDTTKRNNMDFSIRISNVTPADAGIYYCVKFQKGSSEPDTEIQSGGGTEVYVLAKPSPPEVSGPADRGIPDQKVNFTCKSHGFSPRNITLKWFKDGQELHPLETTVNPSGKNVSYNISSTVRVVLNSMDVNSKVICEVAHITLDRSPLRGIANLSNFIRVSPTVKVTQQSPTSMNQVNLTCRAERFYPEDLQLIWLENGNVSRNDTPKNLTKNTDGTYNYTSLFLVNSSAHREDVVFTCQVKHDQQPAITRNHTVLGFAHSSDQGSMQTFPDNNATHNWN
chain 2: LHQRLGDIVAHLPDGGKGSWEKLIQDQRSHQANPAAHLTGANASLIGIGGPLLWETRLGLAFLRGLTYHDGALVTMEPGYYYVYSKVQLSGVGCPQGLANGLPITHGLYKRTSRYPKELELLVSRRSPCGRANSSRVWWDSSFLGGVVHLEAGEEVVVRVPGNRLVRPRDGTRSYFGAFMV
For B1, the concentration giving a half-maximal response (EC50 (read off the curve)) with CD47-His is around 4 nM. Also, the EC50 in [1] came out at 18 nM.

B2: human TIGIT-Fc-OX40L chimeric protein (Fc fusion)
chain: MMTGTIETTGNISAEKGGSIILQCHLSSTTAQVTQVNWEQQDQLLAICNADLGWHISPSFKDRVAPGPGLGLTLQSLTVNDTGEYFCIYHTYPDGTYTGRIFLEVLESSVAEHGARFQIPSKYGPPCPPCPAPEFLGGPSVFLFPPKPKDQLMISRTPEVTCVVVDVSQEDPEVQFNWYVDGVEVHNAKTKPREEQFNSTYRVVSVLTVLHQDWLSGKEYKCKVSSKGLPSSIEKTISNATGQPREPQVYTLPPSQEEMTKNQVSLTCLVKGFYPSDIAVEWESNGQPENNYKTTPPVLDSDGSFFLYSRLTVDKSRWQEGNVFSCSVLHEALHNHYTQKSLSLSLGKIEGRMDQVSHRYPRIQSIKVQFTEYKKEKGFILTSQKEDEIMKVQNNSVIINCDGFYLISLKGYFSQEVNISLHYQKDEEPLFQLKKVRSVNSLMVASLTYKDKVYLNVTTDNTSLDDFHVNGGELILIHQNPGEFCVL
notes: also called hTIGIT-Fc-OX40L
In the case of B2, the binding result (with hCD155-Fc [2]; in the assay with TNFRSF4; in the assay with NECTIN4; with Galectin-1; in the assay with PVR; in assay [3]) was “binds” each time.

B3: human TIGIT-Fc-LIGHT chimeric protein (Fc fusion)
chain: MMTGTIETTGNISAEKGGSIILQCHLSSTTAQVTQVNWEQQDQLLAICNADLGWHISPSFKDRVAPGPGLGLTLQSLTVNDTGEYFCIYHTYPDGTYTGRIFLEVLESSVAEHGARFQIPSKYGPPCPPCPAPEFLGGPSVFLFPPKPKDQLMISRTPEVTCVVVDVSQEDPEVQFNWYVDGVEVHNAKTKPREEQFNSTYRVVSVLTVLHQDWLSGKEYKCKVSSKGLPSSIEKTISNATGQPREPQVYTLPPSQEEMTKNQVSLTCLVKGFYPSDIAVEWESNGQPENNYKTTPPVLDSDGSFFLYSRLTVDKSRWQEGNVFSCSVLHEALHNHYTQKSLSLSLGKIEGRMDLQLHWRLGEMVTRLPDGPAGSWEQLIQERRSHEVNPAAHLTGANSSLTGSGGPLLWETQLGLAFLRGLSYHDGALVVTKAGYYYIYSKVQLGGVGCPLGLASTITHGLYKRTPRYPEELELLVSQQSPCGRATSSSRVWWDSSFLGGVVHLEAGEKVVVRVLDERLVRLRDGTRSYFGAFMV
notes: also called hTIGIT-Fc-LIGHT; hTIGIT-1-Fc-LIGHT
With B3, the binding result (in the assay with human LTBR-His; with hCD155-Fc [4]; in assay [3]; with recombinant human LTbR) was “binds” throughout.

B4: murine TIGIT-Fc-OX40L chimeric protein (Fc fusion)
chain 1: TIDTKRNISAEEGGSVILQCHFSSDTAEVTQVDWKQQDQLLAIYSVDLGWHVASVFSDRVVPGPSLGLTFQSLTMNDTGEYFCTYHTYPGGIYKGRIFLKVQESSDDRNGLAQFQTAPLG
chain 2: SSSPAKDPPIQRLRGAVTRCEDGQLFISSYKNEYQTMEVQNNSVVIKCDGLYIIYLKGSFFQEVKIDLHFREDHNPISIPMLNDGRRIVFTVVASLAFKDKVYLTVNAPDTLCEHLQINDGELIVVQLTPGYCAPEGSYHSTVNQVPL
In the case of B4, the EC50 in assay [5] is 4.63 nM; in [6], 1.7 nM. In addition, the “EC50 (read off the curve)” value with OX40-Fc is around 8 nM; with CD155PVR-His it was around 4 nM.

The EC50 (read off the curve) is the concentration at which the effect is half-maximal. A low value points to higher potency in that assay. One may read the EC50 as the concentration giving half of the maximal effect. A high value points to lower potency in that assay.
